Laboratory results as given in article PMC8809517, “Cofactor-independent RNA editing by a synthetic S-type PPR protein”.
Substitutions are numbered along the chain they refer to.

Tests used:
Experiment in all cases: high-throughput RNA pulldown from lysate on Ni-NTA beads; HRP: 50 mM Tris pH 8, 150 mM NaCl, 1 mM beta-mercaptoethanol, 50 ug/ml BSA, 3 ug/ml yeast RNA, 0.5% heparin; ITC and FP: Tris pH 8, 200 mM KCl, 5% glycerol; MST: 50 mM Tris pH 8, 200 mM NaCl, 1 mM DTT, BSA, heparin, 0.05% Tween 20
Conditions in all cases: tags: N-terminal His-eGFP
[1] = target: T1, GFP-9S library array, motif 4 ND N98A;D124Q (synthetic construct, N98A;D124Q)
T1 chain: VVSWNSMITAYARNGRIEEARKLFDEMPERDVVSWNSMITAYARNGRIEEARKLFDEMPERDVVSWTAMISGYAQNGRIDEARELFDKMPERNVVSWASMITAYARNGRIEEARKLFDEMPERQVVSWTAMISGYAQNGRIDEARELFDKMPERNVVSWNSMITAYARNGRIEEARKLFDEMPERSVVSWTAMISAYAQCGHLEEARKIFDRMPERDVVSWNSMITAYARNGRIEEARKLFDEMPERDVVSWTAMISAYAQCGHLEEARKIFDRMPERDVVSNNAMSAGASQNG

[2] = target: T2, GFP-9S library array, motif 4 ND N98R;D124R (synthetic construct, N98R;D124R)
T2 chain: T1 chain with A98R, Q124R

[3] = target: T3, GFP-9S library array, motif 4 ND N98Y;D124I (synthetic construct, N98Y;D124I)
T3 chain: T1 chain with A98Y, Q124I

[4] = target: T4, GFP-9S library array, motif 4 ND N98M;D124T (synthetic construct, N98M;D124T)
T4 chain: T1 chain with A98M, Q124T

[5] = target: T5, GFP-9S library array, motif 4 ND N98Q;D124Q (synthetic construct, N98Q;D124Q)
T5 chain: T1 chain with A98Q

B1: Cy5-rpoA-G (ssRNA)
RNA: AUUAGACGUGA
For B1, the Kd ([1]; label: 5' Cy5) was 174 nM, the Kd ([2]; label: 5' Cy5) was 53.3 nM and the Kd ([3]; label: 5' Cy5) was 112 nM. For the same binder, the Kd ([4]; label: 5' Cy5) was 115 nM and the Kd ([5]; label: 5' Cy5) was 95.5 nM.

B2: IR-rpoA-U (ssRNA)
RNA: AUUAUACGUGA
B2 showed a Kd ([1]; label: 5' IRDye 800CW) of 522 nM, a Kd ([2]; label: 5' IRDye 800CW) of 97.9 nM and a Kd ([3]; label: 5' IRDye 800CW) of 340 nM. It also gave a Kd ([4]; label: 5' IRDye 800CW) of 109 nM and a Kd ([5]; label: 5' IRDye 800CW) of 123 nM.

B3: IR-rpoA-A (ssRNA)
RNA: AUUAAACGUGA
B3 showed a Kd ([1]; label: 5' IRDye 800CW) of 306 nM, a Kd ([2]; label: 5' IRDye 800CW) of 82 nM and a Kd ([3]; label: 5' IRDye 800CW) of 347 nM. It also gave a Kd ([4]; label: 5' IRDye 800CW) of 116 nM and a Kd ([5]; label: 5' IRDye 800CW) of 167 nM.

B4: Cy5-rpoA (ssRNA)
RNA: AUUACACGUGA
B4 gave a Kd ([1]; label: 5' Cy5) of 249 nM, a Kd ([2]; label: 5' Cy5) of 97.6 nM and a Kd ([3]; label: 5' Cy5) of 109 nM. For the same binder, the Kd ([4]; label: 5' Cy5) was 124 nM and the Kd ([5]; label: 5' Cy5) was 118 nM.
